Experimental findings from publication PMC1636348 are described below.

In the data set the target is DNA polymerase mu (Polμ) wild type (Homo sapiens, UniProt Q9NP87 1-494). Kind of data set: EMSA. On the technique in general: A gel shift assay detects complexes by their altered migration in electrophoresis.
DNA polymerase mu (Polμ) wild type, sequence (Q9NP87 whole entry): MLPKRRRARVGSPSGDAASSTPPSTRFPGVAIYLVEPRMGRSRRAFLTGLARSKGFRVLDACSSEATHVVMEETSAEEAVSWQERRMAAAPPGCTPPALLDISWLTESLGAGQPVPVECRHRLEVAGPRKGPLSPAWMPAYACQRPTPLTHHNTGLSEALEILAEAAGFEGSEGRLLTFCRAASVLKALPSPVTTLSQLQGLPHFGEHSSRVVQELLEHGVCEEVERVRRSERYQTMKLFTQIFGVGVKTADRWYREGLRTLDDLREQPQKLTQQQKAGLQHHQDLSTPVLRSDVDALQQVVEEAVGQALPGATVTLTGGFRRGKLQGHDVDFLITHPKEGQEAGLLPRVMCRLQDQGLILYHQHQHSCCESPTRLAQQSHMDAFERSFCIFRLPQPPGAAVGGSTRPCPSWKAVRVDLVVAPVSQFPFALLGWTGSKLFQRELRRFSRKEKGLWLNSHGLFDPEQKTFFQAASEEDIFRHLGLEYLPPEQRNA

B1: Blunt (P19+T19) (dsDNA)
DNA 1: GATCACAGTGAGTACAATA
DNA 2: TATTGTACTCACTGTGATC
Take B1: the binding result is recorded as “no binding”.
